Source: patent US20180201654A1, “PEPTIDE INHIBITORS OF HAUSP DEUBIQUITINASE” (priority 2012, published 2018)

B1: vIRF4^153-216 (protein)
chain: SDTREQSYEEAGAAAPAPPKAPSGLRGRPRKSNRYYNVGDITTEQKAACSVWIPVNEGASTSGM
B2: vIRF4^153-256 (protein)
chain: SDTREQSYEEAGAAAPAPPKAPSGLRGRPRKSNRYYNVGDITTEQKAACSVWIPVNEGASTSGMGSSGTRQVTQASSFTWRVPGDPPAPSTLTGPSDPHSSGAG

Tests used:
[1] = target: T1, HAUSP TRAF domain HAUSP^62-205 (Homo sapiens, UniProt Q93009); assay: Size exclusion chromatography of complex formation in excess MDM2^137-152; assay type: binding; design: hexahistidine tag (TEV-cleavable) (cleaved yes); made in house; host or cells: E. coli BL21 (DE3) RIPL; settings: in the presence of a 5-fold molar excess of MDM2^137-152
T1 sequence (Q93009 62-205): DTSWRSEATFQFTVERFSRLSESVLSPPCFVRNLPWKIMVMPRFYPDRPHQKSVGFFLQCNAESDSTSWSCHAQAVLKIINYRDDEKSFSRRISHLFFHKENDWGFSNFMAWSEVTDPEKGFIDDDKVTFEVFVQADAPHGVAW

[2] = target: T1, HAUSP TRAF domain HAUSP^62-205; assay type: binding; design: All residues of HAUSP^62-205, with the exception of Asp^62, are included in the final model; hexahistidine tag (TEV-cleavable) (cleaved yes); made in house; host or cells: E. coli BL21 (DE3) RIPL; settings: for Ka / TΔS / ΔG: ITC, 20° C., pH 7.0
Procedure: FIG. 5. Typical isothermal titration calorimetric measurements of the interactions between the HAUSP TRAF domain and the vIRF4 protein derivatives or other peptides. Purified proteins and synthesized peptides were reconstituted in 150 mM NaCl and 10 mM HEPES (pH 7.0). The calorimetric assays were performed using a VPITC system. All experiments were carried out with a stirring speed of 300 rpm at 20° C., and the thermal power was recorded every 10 s. Data were analyzed using the ORIGIN software package (version 7.0). […] Each titration against the HAUSP TRAF domain is indicated in each panel.
Purified proteins and synthesized peptides (Peptron Inc., Deajeon, Korea) were reconstituted in 150 mM NaCl and 10 mM HEPES (pH 7.0). The calorimetric assays were performed using a VP-ITC system (MicroCal Inc., Northampton, Mass.). Samples were degassed by vacuum aspiration for 15 min prior to loading. All experiments were carried out with a stirring speed of 300 rpm at 20° C., and the thermal power was recorded every 10 s. Data were analyzed using the ORIGIN software package (version 7.0) supplied with the instrument. […] (SEQ ID NO: 6); EBNA1^435-449, […] (SEQ ID NO: 7); MDM2^137-152, […] […] (SEQ ID NO: 10). Each set of ITC experiments was repeated two or three times.

Row | Molecule | complex formation with the TRAF domain [1] | TRAF binding affinity (in words) ([2]; ITC comparison) | Ka [2] | TΔS [2] [kcal/mol] | ΔG [2] [kcal/mol]
1 | B1 | formed a stable complex | comparable TRAF binding affinity | 1.84 ± 0.10 10^6 M^−1 | -7.35 | -8.41
2 | B2 | – | – | 13.20 ± 0.85 10^6 M^−1 | -10.05 | -7.64
